Reference: article PMC8389370, “pUL21 is a viral phosphatase adaptor that promotes herpes simplex virus replication and spread” (PLoS Pathogens, 2021)

Target: T1, StrepII-CERT (human, UniProt Q9Y5P4-2 1-598, predominantly hyperphosphorylated (CERT^P); sites not given)
T1 construct: human CERT, UniProt Q9Y5P4-2, codon-optimised synthetic gene in pcDNA-SW; also called Strep-CERT; CERT^P; source: Freestyle 293F cells, transfected, purified (StrepTrap HP, SEC); not shown: StrepII-tag, N-terminal, kept
T1 sequence (looked up): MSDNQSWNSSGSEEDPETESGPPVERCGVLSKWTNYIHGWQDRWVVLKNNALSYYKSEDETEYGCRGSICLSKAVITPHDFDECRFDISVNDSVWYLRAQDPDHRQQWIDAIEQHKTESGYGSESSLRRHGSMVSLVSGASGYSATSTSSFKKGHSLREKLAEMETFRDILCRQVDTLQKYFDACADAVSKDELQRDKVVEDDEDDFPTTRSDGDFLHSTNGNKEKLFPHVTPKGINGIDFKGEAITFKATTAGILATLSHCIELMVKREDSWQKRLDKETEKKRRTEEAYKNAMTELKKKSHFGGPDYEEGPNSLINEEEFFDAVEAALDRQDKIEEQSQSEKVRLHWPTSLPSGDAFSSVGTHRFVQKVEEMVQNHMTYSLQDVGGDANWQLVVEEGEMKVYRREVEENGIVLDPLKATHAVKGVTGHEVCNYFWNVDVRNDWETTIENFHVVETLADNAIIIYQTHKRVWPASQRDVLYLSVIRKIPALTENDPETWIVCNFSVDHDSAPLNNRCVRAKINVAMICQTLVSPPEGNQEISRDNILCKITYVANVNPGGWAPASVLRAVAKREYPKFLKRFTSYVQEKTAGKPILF
Test: pull-down; pUL21-GST (1 μM) on glutathione magnetic beads, 5 μM purified prey, 60 min at room temperature, 20 mM Tris pH 8.5, 200 mM NaCl, 0.1% NP-40, 1 mM DTT, 1 mM EDTA; eluted with glutathione, Coomassie SDS-PAGE
Details: both partners purified

B1: pUL21-GST (natural protein)
chain: MELSYATTMHYRDVVFYVTTDRNRAYFVCGGCVYSVGRPCASQPGEIAKFGLVVRGTGPDDRVVANYVRSELRQRGLQDVRPIGEDEVFLDSVCLLNPNVSSELDVINTNDVEVLDECLAEYCTSLRTSPGVLISGLRVRAQDRIIELFEHPTIVNVSSHFVYTPSPYVFALAQAHLPRLPSSLEALVSGLFDGIPAPRQPLDAHNPRTDVVITGRRAPRPIAGSGAGSGGAGAKRATVSEFVQVKHIDRVGPAGVSPAPPPNNTDSSSLVPGAQDSAPPGPTLRELWWVFYAADRALEEPRADSGLTREEVRAVRGFREQAWKLFGSAGAPRAFIGAALGLSPLQKLAVYYYIIHRERRLSPFPALVRLVGRYTQRHGLYVPRPDDPVLADAINGLFRDALAAGTTAEQLLMFDLLPPKDVPVGSDVQADSTALLRFIESQRLAVPGGVISPEHVAYLGAFLSVLYAGRGRMSAATHTARLTGVTSLVLAVGDVDRLSAFDRGAAGAASRTRAAGYLDVLLTVRLARSQHGQSV
notes: HSV-1 strain KOS pUL21, UniProt F8RG07; the plasmid for the GST fusion is not described; also called Purified recombinant pUL21-GST; source: E. coli T7 Express lysY/Iq, purified (glutathione Sepharose 4B, SEC)
  binding result: binds
